Series [1] has as its target T1, CRD-BP WT (mouse, UniProt O88477 1-577). As to the kind of experiment: fluorescence polarization; 10 nM oligo, 0-1000 nM protein; EMSA as in refs 21,22 (buffer not given; competitor preincubation 35 C); FP: binding buffer stock 10 mM Tris-HCl pH 7.4, 2.5 mM EDTA, 5% glycerol, 0.002% Triton X-100, 37 C 30 min. Conditions: protein: recombinant; (pET28b(+), Ni-NTA); label: 3' 6-FAM. Background: Fluorescence polarisation rises when a labelled molecule tumbles more slowly, as on binding a larger partner.

Series [2] addresses T1, CRD-BP WT. The experiment in a line: fluorescence polarization; 10 nM RNA, 0-1000 nM protein; EMSA as in refs 21,22 (buffer not given; competitor preincubation 35 C); FP: binding buffer stock 10 mM Tris-HCl pH 7.4, 2.5 mM EDTA, 5% glycerol, 0.002% Triton X-100, 37 C 30 min. The conditions noted are these: protein: recombinant; (pET28b(+), Ni-NTA); label: 3' 6-FAM.

T1 sequence (O88477 whole entry): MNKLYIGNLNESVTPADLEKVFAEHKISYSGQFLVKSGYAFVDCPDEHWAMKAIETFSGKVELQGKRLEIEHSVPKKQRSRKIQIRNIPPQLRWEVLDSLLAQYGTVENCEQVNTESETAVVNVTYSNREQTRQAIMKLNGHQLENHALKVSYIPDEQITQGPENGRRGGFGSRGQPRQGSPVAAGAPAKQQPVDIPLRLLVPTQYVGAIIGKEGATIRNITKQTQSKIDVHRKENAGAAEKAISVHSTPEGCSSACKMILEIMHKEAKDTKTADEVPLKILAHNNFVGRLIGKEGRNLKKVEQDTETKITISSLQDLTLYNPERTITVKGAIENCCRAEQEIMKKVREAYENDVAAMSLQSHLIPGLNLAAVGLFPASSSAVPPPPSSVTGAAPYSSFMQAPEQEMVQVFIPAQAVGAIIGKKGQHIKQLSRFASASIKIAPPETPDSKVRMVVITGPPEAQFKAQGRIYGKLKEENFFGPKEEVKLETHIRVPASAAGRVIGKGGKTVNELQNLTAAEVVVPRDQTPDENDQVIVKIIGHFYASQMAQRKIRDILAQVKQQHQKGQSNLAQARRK

Turning to ATTCAGTTCACAGATACTGCAC (ssDNA) [MHO-7_FL], the binding result in the series with CRD-BP WT [1] is given as “no binding”.
For AAAUUAGGGCCCAAUUAAUAAUCAGCAAGAAUUUGAUCG (ssRNA) [FL-CD44 RNA], the binding result with CRD-BP WT [2] is reported as “binds”.
Consider TAAAAATCTCAAATCAAGTTTC (ssDNA) [MHO-1_FL], for which, in the series with CRD-BP WT [1], the binding result is “no binding”.

The values above are taken from article PMC5300761, “Characterizing the Coding Region Determinant-Binding Protein (CRD-BP)-Microphthalmia-associated Transcription Factor (MITF) mRNA interaction”.
